Reference: the Human Domainome abundance scans (Beltran et al. 2025)
± gives the uncertainty stated by the source.

B1: POU domain, class 2, transcription factor 3, residues 186 to 260; numbered along this chain, Q9UKI9 (parent)
chain: SDLEELEKFAKTFKQRRIKLGFTQGDVGLAMGKLYGNDFSQTTISRFEALNLSFKNMCKLKPLLEKWLNDAESSP
B2: Transitional endoplasmic reticulum ATPase, residues 26 to 106; numbered along this chain, P55072 (parent)
chain: LIVDEAINEDNSVVSLSQPKMDELQLFRGDTVLLKGKKRREAVCIVLSDDTCSDEKIRMNRVVRNNLRVRLGDVISIQPCP

Variants of: B1
Experiment: abundance fitness (aPCA) (normalised: wild type 0, dead -1); higher = more abundant; growth selection in yeast, the domain comes from the species named
Settings: Homo sapiens

SELEELEKFAKTFKQRRIKLGFTQGDVGLAMGKLYGNDFSQTTISRFEALNLSFKNMCKLKPLLEKWLNDAESSP [D2E] and FDLEELEKFAKTFKQRRIKLGFTQGDVGLAMGKLYGNDFSQTTISRFEALNLSFKNMCKLKPLLEKWLNDAESSP [S1F] are within error of each other in abundance fitness: 0.015 ± 0.1 for the first, -0.062 ± 0.2 for the second.

Variants of: B2
Experiment: as above
Settings: Homo sapiens

Q78F and Q78Y are within error of each other in abundance fitness: -0.345 ± 0.12 for the first, 0.024 ± 0.33 for the second.

Q78M and Q78R are within error of each other in abundance fitness: -0.089 ± 0.077 for the first, -0.071 ± 0.057 for the second.

Q78E and Q78T are within error of each other in abundance fitness: -0.004 ± 0.13 for the first, -0.003 ± 0.077 for the second.

Going from Q78C to R58E, the abundance fitness falls from -0.105 ± 0.089 to -0.376 ± 0.098.

Compared with R58S, R58V is lower in abundance fitness: -0.253 ± 0.062 for the first, -0.521 ± 0.1 for the second.

Compared with R58C, D50T is higher in abundance fitness: -0.255 ± 0.13 for the first, -0.037 ± 0.087 for the second.

D50L and D50E are within error of each other in abundance fitness: -0.146 ± 0.058 for the first, -0.023 ± 0.081 for the second.

Going from L47K to L47P, the abundance fitness falls from -0.036 ± 0.076 to -0.756 ± 0.17.

L47C and S76V are within error of each other in abundance fitness: -0.05 ± 0.087 for the first, 0.023 ± 0.064 for the second.

Compared with S76P, S76M is higher in abundance fitness: -0.467 ± 0.16 for the first, -0.012 ± 0.087 for the second.

S76R and T31H are within error of each other in abundance fitness: -0.046 ± 0.044 for the first, -0.048 ± 0.13 for the second.

T31Y and T31N are within error of each other in abundance fitness: -0.161 ± 0.14 for the first, -0.023 ± 0.11 for the second.

Going from T31F to T31R, the abundance fitness rises from -0.198 ± 0.09 to 0.053 ± 0.047.

Going from L1Y to D30G, the abundance fitness rises from -0.582 ± 0.26 to -0.107 ± 0.041.

D30Q and D30A are within error of each other in abundance fitness: 0.103 ± 0.1 for the first, 0.005 ± 0.063 for the second.

First: T51W
Second: T51C
The abundance fitness of the first is lower: -0.275 ± 0.068 for the first, -0.064 ± 0.1 for the second.

N8L and N8Q are within error of each other in abundance fitness: -0.022 ± 0.049 for the first, -0.025 ± 0.089 for the second.

N8S and N8K are within error of each other in abundance fitness: -0.036 ± 0.053 for the first, -0.011 ± 0.07 for the second.

Compared with N8M, N8D is higher in abundance fitness: -0.099 ± 0.068 for the first, 0.075 ± 0.09 for the second.

D10S and D10R are within error of each other in abundance fitness: -0.14 ± 0.061 for the first, -0.158 ± 0.058 for the second.

D10A and R40P are within error of each other in abundance fitness: -0.059 ± 0.041 for the first, -0.122 ± 0.11 for the second.

Going from R40S to C52P, the abundance fitness falls from -0.061 ± 0.054 to -0.624 ± 0.13.

C52G and C52S are within error of each other in abundance fitness: -0.197 ± 0.047 for the first, -0.261 ± 0.066 for the second.

Compared with C52A, V14R is lower in abundance fitness: -0.253 ± 0.069 for the first, -0.884 ± 0.083 for the second.

V14Y and V14D are within error of each other in abundance fitness: -0.803 ± 0.23 for the first, -0.704 ± 0.12 for the second.

V14G and V14L are within error of each other in abundance fitness: -0.758 ± 0.054 for the first, -0.763 ± 0.073 for the second.

First: V14P
Second: S48V
The abundance fitness of the first is lower: -0.977 ± 0.19 for the first, 0.004 ± 0.055 for the second.

S48I and S48R are within error of each other in abundance fitness: 0.031 ± 0.15 for the first, -0.015 ± 0.051 for the second.

S48Q and S48W are within error of each other in abundance fitness: -0.106 ± 0.1 for the first, -0.357 ± 0.18 for the second.

L16N and L16P are within error of each other in abundance fitness: -0.766 ± 0.29 for the first, -0.788 ± 0.13 for the second.

Going from D49H to D49M, the abundance fitness falls from -0.251 ± 0.19 to -0.78 ± 0.2.

D49C and D49W are within error of each other in abundance fitness: -0.468 ± 0.4 for the first, -0.923 ± 0.14 for the second.

First: V32G
Second: V32W
The abundance fitness of the first is higher: -0.587 ± 0.049 for the first, -0.988 ± 0.22 for the second.

Compared with V32R, I57V is higher in abundance fitness: -0.98 ± 0.11 for the first, -0.019 ± 0.058 for the second.

Compared with I57G, N60A is higher in abundance fitness: -0.951 ± 0.15 for the first, -0.009 ± 0.075 for the second.

Compared with N60S, N60E is lower in abundance fitness: 0.085 ± 0.074 for the first, -0.266 ± 0.11 for the second.

N60G and I2C are within error of each other in abundance fitness: -0.065 ± 0.082 for the first, -0.162 ± 0.078 for the second.

Compared with I2D, I2T is higher in abundance fitness: -0.806 ± 0.17 for the first, 0.024 ± 0.083 for the second.

First: I2P
Second: I2L
The abundance fitness of the first is lower: -0.891 ± 0.27 for the first, -0.115 ± 0.055 for the second.

First: V3R
Second: V3C
The abundance fitness of the first is lower: -0.992 ± 0.15 for the first, -0.173 ± 0.13 for the second.
